Laboratory results published in patent publication US20100081624.

Tests used:
[1] = test system: mutLxVPc1 peptide (LxVP motif from NFATc1 with the Leucine, Valine and Proline residues replaced by Alanine)
[2] = test system: T1, LxVPc1 peptide (synthetic peptide with the LxVP sequence of NFATc1)
T1 sequence: DQYLAVPQHPYQWAK

How did the “phosphatase activity of CN on the RII phosphopeptide substrate” value [1] turn out when “Calcineurin of the Biomol Green Calcineurin assay kit” was run?
The value was “(but not its mutant version)”.

And the “phosphatase activity of CN on the RII phosphopeptide substrate” value [2]?
The value was “severely blocked in vitro the phosphatase activity of CN on its physiological substrate”.
